# Test results: article PMC12362333
# How the values were obtained:
# [1] = target: KDEL receptor (KDEL‐R) (mouse (endogenous in DRG neurons)) (UniProt Q99JH8)
# [2] = target: KDEL receptor (KDEL‐R) (mouse (endogenous in DRG neurons)) (UniProt Q99JH8); remark: listed apart in the source
# [3] = target: KDEL receptor (KDEL‐R) (mouse (endogenous in DRG neurons)) (UniProt Q99JH8); remark: listed apart in the source
# [4] = target: KDEL receptor (KDEL‐R) (mouse (endogenous in DRG neurons)) (UniProt Q99JH8); remark: listed apart in the source
# [5] = target: KDEL receptor (KDEL‐R) (mouse (endogenous in DRG neurons)) (UniProt Q99JH8); remark: listed apart in the source
# Sequence of UniProt Q99JH8 (Q99JH8 whole entry): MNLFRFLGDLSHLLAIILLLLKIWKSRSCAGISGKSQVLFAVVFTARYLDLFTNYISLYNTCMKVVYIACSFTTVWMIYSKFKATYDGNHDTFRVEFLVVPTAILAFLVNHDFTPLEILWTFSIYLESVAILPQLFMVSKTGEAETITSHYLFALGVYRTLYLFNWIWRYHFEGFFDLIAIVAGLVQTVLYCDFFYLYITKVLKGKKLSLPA
"neuritic area of DRG explants after 72 h, CDNF 18 μg/mL (Figure 1C) [1] [μm^2]","neurite length in dissociated DRG cell cultures, CDNF 18 μg/mL, 3 days (Figure 7B) [3] [μm]","neurite length of DRG explants after NGF deprivation, CDNF 18 μg/mL for 48 h (Figure 3B) [4] [μm]","neurite length of DRG explants after 72 h, CDNF 1.8 and 18 μg/mL (Figure 1B) [5] [μm]","neuritic area of DRG explants after 72 h, CDNF-ΔKTEL 1.8 and 18 μg/mL (Figure 1C) [1] [μm^2]","neurite length in dissociated DRG cell cultures, CDNF-ΔKTEL 18 μg/mL, 3 days (Figure 7B) [3] [μm]","neurite length of DRG explants after NGF deprivation, CDNF-ΔKTEL 18 μg/mL for 48 h (Figure 3B) [4] [μm]",neurite length of DRG explants after 72 h (Figure 1B) [5] [μm],Substance,"viable cells by LDH release, DRG explants under trophic deprivation, CDNF 18 μg/mL (Figure 3E) [2] [%]","viable cells by LDH release, DRG explants under trophic deprivation, CDNF-ΔKTEL (Figure 3E) [2] [%]"
5.2e+06,390,500,600,–,–,–,–,cerebral dopamine neurotrophic factor (CDNF) (from UniProt Q49AH0 25-187) (ligand),75,–
–,–,–,–,2.9e+06,< 200,200,200,CDNF‐ΔKTEL (CDNF without the last four residues KTEL) (domain or fragment),–,61
